Experimental data taken from patent publication US20240059799A1 (Pfizer, published 2024).

T1: recombinant human TL1A (human, UniProt O95150 71-251)
T1 construct: TL1A is described as a homotrimer; Biotinylated for SPR capture; also called TNFSF15
T1 chain: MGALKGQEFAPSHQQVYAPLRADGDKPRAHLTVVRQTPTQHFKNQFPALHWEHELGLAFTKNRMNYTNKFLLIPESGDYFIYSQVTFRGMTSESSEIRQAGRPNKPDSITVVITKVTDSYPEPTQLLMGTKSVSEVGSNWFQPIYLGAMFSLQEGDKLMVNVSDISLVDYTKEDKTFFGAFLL

T2: human IL-23 (human, UniProt P29460 23-328; Q9NPF7 20-189)
T2 construct: also called recombinant human IL-23 (p40/p19)
T2 sequence 1: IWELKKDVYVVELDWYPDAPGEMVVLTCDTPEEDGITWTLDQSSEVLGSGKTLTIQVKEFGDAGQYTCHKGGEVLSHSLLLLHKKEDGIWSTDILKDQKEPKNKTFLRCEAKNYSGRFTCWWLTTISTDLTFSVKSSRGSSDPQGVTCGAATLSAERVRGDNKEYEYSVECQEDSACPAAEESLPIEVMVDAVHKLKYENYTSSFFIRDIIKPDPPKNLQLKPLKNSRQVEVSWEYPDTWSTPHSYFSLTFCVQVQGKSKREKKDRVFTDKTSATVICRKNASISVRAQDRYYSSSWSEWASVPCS
T2 sequence 2: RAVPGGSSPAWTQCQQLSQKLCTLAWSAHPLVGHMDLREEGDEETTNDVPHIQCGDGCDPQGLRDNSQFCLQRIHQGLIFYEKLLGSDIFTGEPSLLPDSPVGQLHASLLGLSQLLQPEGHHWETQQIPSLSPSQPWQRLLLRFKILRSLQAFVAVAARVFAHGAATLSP

B1: p40TL1A-0040 KiH mFd bispecific antibody (bispecific antibody)
heavy: EVQLVQSGAEVKKPGESLKISCKGSGYSFTTYWLGWVRQMPGKGLDWIGIMSPVDSDIRYSPSFQGQVTMSVDKSITTAYLQWNSLKASDTAMYYCARRRPGQGYFDFWGQGTLVTVSSASTKGPSVFPLAPSSKSTSGGTAALGCLVKDYFPEPVTVSWNSGALTSGVHTFPAVLQSSGLYSLSSVVTVPSSSLGTQTYICNVNHKPSNTKVDKKVEPKSCDKTHTCPPCPAPEAAGAPSVFLFPPKPKDTLMISRTPEVTCVVVDVSHEDPEVKFNWYVDGVEVHNAKTKPREEQYNSTYRVVSVLTVLHQDWLNGKEYKCKVSNKALPAPIEKTISKAKGQPREPQVYTLPPCREEMTKNQVSLSCAVKGFYPSDIAVEWESNGQPENNYKTTPPVLDSDGSFFLVSKLTVDKSRWQQGNVFSCSVLHEALHSHYTQKSLSLSPGK
light: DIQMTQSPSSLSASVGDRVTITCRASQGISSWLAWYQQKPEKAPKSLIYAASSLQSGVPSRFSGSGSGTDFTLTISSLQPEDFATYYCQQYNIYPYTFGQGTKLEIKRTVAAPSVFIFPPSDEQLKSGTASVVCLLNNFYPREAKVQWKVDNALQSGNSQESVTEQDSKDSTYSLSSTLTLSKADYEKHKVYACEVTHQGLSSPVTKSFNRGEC
LC-Fc: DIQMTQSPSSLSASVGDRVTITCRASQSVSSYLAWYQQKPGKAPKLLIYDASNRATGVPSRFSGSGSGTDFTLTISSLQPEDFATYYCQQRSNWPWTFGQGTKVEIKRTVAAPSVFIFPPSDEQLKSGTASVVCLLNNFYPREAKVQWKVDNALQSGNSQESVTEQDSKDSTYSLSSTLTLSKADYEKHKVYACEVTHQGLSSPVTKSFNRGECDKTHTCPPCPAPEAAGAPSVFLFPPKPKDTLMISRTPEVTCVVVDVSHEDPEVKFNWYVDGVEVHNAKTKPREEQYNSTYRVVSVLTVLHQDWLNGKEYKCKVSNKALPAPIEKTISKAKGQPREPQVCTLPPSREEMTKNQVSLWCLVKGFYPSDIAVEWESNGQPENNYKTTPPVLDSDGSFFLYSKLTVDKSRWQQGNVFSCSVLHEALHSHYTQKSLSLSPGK
mFd: QVQLVQSGAEVKKPGASVKVSCKASGYDYTYYGISWVRQAPGQGLEWMGWISTYNTGTHYAPSLQGRVTMTTDTSTSTAYMELRSLRSDDTAVYYCARESYYGSGAFRGGMDVWGQGTTVTVSSASTKGPSVFPLAPSSKSTSGGTAALGCLVKDYFPEPVTVSWNSGALTSGVHTFPAVLQSSGLYSLSSVVTVPSSSLGTQTYICNVNHKPSNTKVDKKVEPKSC
notes: Same format as p40TL1A-0033 with knob and hole swapped
B2: p40TL1A-0041 KiH mFd bispecific antibody (bispecific antibody)
heavy: QVQLVQSGAEVKKPGASVKVSCKASGYDYTYYGISWVRQAPGQGLEWMGWISTYNTGTHYAPSLQGRVTMTTDTSTSTAYMELRSLRSDDTAVYYCARESYYGSGAFRGGMDVWGQGTTVTVSSASTKGPSVFPLAPSSKSTSGGTAALGCLVKDYFPEPVTVSWNSGALTSGVHTFPAVLQSSGLYSLSSVVTVPSSSLGTQTYICNVNHKPSNTKVDKKVEPKSCDKTHTCPPCPAPEAAGAPSVFLFPPKPKDTLMISRTPEVTCVVVDVSHEDPEVKFNWYVDGVEVHNAKTKPREEQYNSTYRVVSVLTVLHQDWLNGKEYKCKVSNKALPAPIEKTISKAKGQPREPQVCTLPPSREEMTKNQVSLWCLVKGFYPSDIAVEWESNGQPENNYKTTPPVLDSDGSFFLYSKLTVDKSRWQQGNVFSCSVLHEALHSHYTQKSLSLSPGK
light: not shown
LC-Fc: not shown
mFd: EVQLVQSGAEVKKPGESLKISCKGSGYSFTTYWLGWVRQMPGKGLDWIGIMSPVDSDIRYSPSFQGQVTMSVDKSITTAYLQWNSLKASDTAMYYCARRRPGQGYFDFWGQGTLVTVSSASTKGPSVFPLAPSSKSTSGGTAALGCLVKDYFPEPVTVSWNSGALTSGVHTFPAVLQSSGLYSLSSVVTVPSSSLGTQTYICNVNHKPSNTKVDKKVEPKSC
notes: KiH mFd format with the anti-p40 arm as modified Fd
B3: p40TL1A-0042 KiH mFd bispecific antibody (bispecific antibody)
heavy: QVQLVQSGAEVKKPGASVKVSCKASGYDYTYYGISWVRQAPGQGLEWMGWISTYNTGTHYAPSLQGRVTMTTDTSTSTAYMELRSLRSDDTAVYYCARESYYGSGAFRGGMDVWGQGTTVTVSSASTKGPSVFPLAPSSKSTSGGTAALGCLVKDYFPEPVTVSWNSGALTSGVHTFPAVLQSSGLYSLSSVVTVPSSSLGTQTYICNVNHKPSNTKVDKKVEPKSCDKTHTCPPCPAPEAAGAPSVFLFPPKPKDTLMISRTPEVTCVVVDVSHEDPEVKFNWYVDGVEVHNAKTKPREEQYNSTYRVVSVLTVLHQDWLNGKEYKCKVSNKALPAPIEKTISKAKGQPREPQVYTLPPCREEMTKNQVSLSCAVKGFYPSDIAVEWESNGQPENNYKTTPPVLDSDGSFFLVSKLTVDKSRWQQGNVFSCSVLHEALHSHYTQKSLSLSPGK
light: not shown
LC-Fc: not shown
mFd: EVQLVQSGAEVKKPGESLKISCKGSGYSFTTYWLGWVRQMPGKGLDWIGIMSPVDSDIRYSPSFQGQVTMSVDKSITTAYLQWNSLKASDTAMYYCARRRPGQGYFDFWGQGTLVTVSSASTKGPSVFPLAPSSKSTSGGTAALGCLVKDYFPEPVTVSWNSGALTSGVHTFPAVLQSSGLYSLSSVVTVPSSSLGTQTYICNVNHKPSNTKVDKKVEPKSC
notes: as for B2
B4: TL1A-0368 MBsAb (bispecific antibody)
heavy 1: QVQLVQSGAEVKKPGASVKVSCKASGYDYTYYGISWVRQAPGQGLEWMGWISTYNTGTHYAPSLQGRVTMTTDTSTSTAYMELRSLRSDDTAVYYCARESYYGSGAFRGGMDVWGQGTTVTVSSASTKGPSVFPLAPSSKSTSGGTAALGCLVKDYFPEPVTVSWNSGALTSGVHTFPAVLQSSGLYSLSSVVTVPSSSLGTQTYICNVNHKPSNTKVDKKVEPKSCDKTHTCPPCPAPEAAGAPSVFLFPPKPKDTLMISRTPEVTCVVVDVSHEDPEVKFNWYVDGVEVHNAKTKPREEQYNSTYRVVSVLTVLHQDWLNGKEYKCKVSNKALPAPIEKTISKAKGQPREPQVCTLPPSREEMTKNQVSLWCLVKGFYPSDIAVEWESNGQPENNYKTTPPVLDSDGSFFLYSKLTVDKSRWQQGNVFSCSVLHEALHSHYTQKSLSLSPGK
heavy 2: QVQLVQSGAEVKKPGASVKVSCKASGYTFTSYGISWVRQAPGQGLEWMGWISAYNGNTNYAQKLQGRVTMTTDTSTSTAYMELRSLRSDDTAVYYCARESYYGSEAFRAGMDVWGQGTTVTVSS
light: not shown
notes: not shown: human IgG1 constant region with hole KiH, effector-minimizing and LS mutations
B5: TL1A-0370 MBsAb (bispecific antibody)
heavy 1: QVQLVQSGAEVKKPGASVKVSCKASGYDYTYYGISWVRQAPGQGLEWMGWISTYNTGTHYAPSLQGRVTMTTDTSTSTAYMELRSLRSDDTAVYYCARESYYGSGAFRGGMDVWGQGTTVTVSSASTKGPSVFPLAPSSKSTSGGTAALGCLVKDYFPEPVTVSWNSGALTSGVHTFPAVLQSSGLYSLSSVVTVPSSSLGTQTYICNVNHKPSNTKVDKKVEPKSCDKTHTCPPCPAPEAAGAPSVFLFPPKPKDTLMISRTPEVTCVVVDVSHEDPEVKFNWYVDGVEVHNAKTKPREEQYNSTYRVVSVLTVLHQDWLNGKEYKCKVSNKALPAPIEKTISKAKGQPREPQVCTLPPSREEMTKNQVSLWCLVKGFYPSDIAVEWESNGQPENNYKTTPPVLDSDGSFFLYSKLTVDKSRWQQGNVFSCSVLHEALHSHYTQKSLSLSPGK
heavy 2: QVQLVQSGAEVKKPGASVKVSCKASGYTFTSYGISWVRQAPGQGLEWMGWISAYNGNTNYAQKLQGRVTMTTDTSTSTAYMELRSLRSDDTAVYYCARESSYGSEAFRAGMDVWGQGTTVTVSS
light: not shown
notes: as for B4

Columns and labels:
recombinant human TL1A [1] = target: T1, recombinant human TL1A; assay: SPR, 37 C; biotinylated human TL1A captured on Biotin CAPture chip, antibody injected
Protocol: (§1) SPR was utilized to determine if the affinity constants of each arm of the bispecific variants binding human IL-23, containing the p40 subunit, and human TL1A were the same for each bispecific approach. For the analysis of the p40 binding arm, kinetic assays were conducted at 37° C. using a collection rate of 10 Hz on a Biacore™ 8 K+ instrument (GE Healthcare). An anti-human IgG antibody (anti-human Fc, GE Healthcare, 22-0648-88) was amine coupled to all four flow cells of a carboxymethylated dextran coated sensor chip (GE Healthcare,) using the manufacturer's recommended protocol. […] For the analysis of the TL1A binding arm, kinetic assays were conducted at 37° C. using a collection rate of 10 Hz on a Biacore™ T200 instrument (GE Healthcare).
(§2) As described above in EXAMPLE 12, SPR was utilized to determine if the affinity constants of each arm of the bispecific variants binding human IL-23, containing the p40 subunit, and human TL1A were the same for each bispecific variant.

human IL-23 = target: T2, human IL-23; assay: SPR, 37 C; antibody captured by anti-human Fc, human IL-23 injected
Protocol: as §1, §2

recombinant human TL1A [2] = target: T1, recombinant human TL1A; assay: cell-based or functional assay
bovine serum albumin = target: T3, bovine serum albumin (bovine, UniProt P02769 25-607); assay: direct binding ELISA on coated BSA
T3 construct: also called BSA
Protocol: (§3) For the direct binding ELISA method to HSA or BSA, 96-well high binding plates (Corning, product number 3590) were coated with 1 μg/mL recombinant HSA or BSA in 100 μL/well in PBS overnight at 4° C. Plates were then blocked in PBS+0.02% casein solution and washed with PBS+0.05% Tween-20 following standard ELISA protocol. […] Plates were washed with PBS+0.05% Tween-20 following standard ELISA protocol, and goat anti-human IgG-Fc HRP conjugated secondary antibody (Pierce, #31413) diluted to 1:10,000 in assay buffer was added to plates and incubated for 1 hour at room temperature. Next, the plates were washed with PBS+0.05% Tween-20 following standard ELISA protocol, and then TMB substrate (BioFX Laboratories, catalog number TMBW-0100-01) was added to plates.
(§4) Reactions were stopped after approximately 5 minutes by adding 0.18 M ortho-phosphoric acid to each well and absorbance was read at 450 nm. […] For this method, samples diluted to 0.3 mg/mL were dispensed into the sample tray of a MicroCal VP-Capillary DSC with Autosampler (Malvern Instruments, Inc.), equilibrated for 5 minutes at 10° C. and then scanned up to 110° C. at a rate of 100° C. per/hour. A filtering period of 16 seconds was selected. Raw data was baseline corrected and the protein concentration was normalized. Origin Software 7.0 (Origin Lab Corporation, Northampton, MA) was used to fit the data to an MN2-State Model with an appropriate number of transitions.

human serum albumin = target: T4, human serum albumin (human, UniProt P02768 25-609); assay: direct binding ELISA on coated HSA
T4 construct: also called HSA
Protocol: as §3, §4

T3 sequence (P02769 25-607 limits assumed): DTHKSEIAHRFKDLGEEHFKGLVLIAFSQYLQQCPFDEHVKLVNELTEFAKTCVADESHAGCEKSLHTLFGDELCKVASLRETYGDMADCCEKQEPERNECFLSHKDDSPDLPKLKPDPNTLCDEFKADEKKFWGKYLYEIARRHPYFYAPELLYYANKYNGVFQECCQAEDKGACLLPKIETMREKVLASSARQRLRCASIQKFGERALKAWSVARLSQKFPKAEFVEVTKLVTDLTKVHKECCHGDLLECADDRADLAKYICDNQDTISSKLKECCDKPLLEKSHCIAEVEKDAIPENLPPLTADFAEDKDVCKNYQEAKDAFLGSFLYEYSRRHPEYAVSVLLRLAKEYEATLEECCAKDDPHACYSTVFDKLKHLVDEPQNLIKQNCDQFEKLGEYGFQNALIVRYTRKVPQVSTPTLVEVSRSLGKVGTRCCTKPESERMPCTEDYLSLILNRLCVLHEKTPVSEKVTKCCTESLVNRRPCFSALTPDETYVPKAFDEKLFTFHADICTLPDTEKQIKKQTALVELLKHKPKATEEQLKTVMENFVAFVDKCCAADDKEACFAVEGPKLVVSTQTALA

Binder	Kd (recombinant human TL1A [1])	koff (recombinant human TL1A [1])	kon (recombinant human TL1A [1])	Kd (human IL-23)	koff (human IL-23)	kon (human IL-23)	NF-κB assay IC50 (TF-1 reporter cells, 384-well) (recombinant human TL1A [2])	binding result (bovine serum albumin)	binding result (human serum albumin)
B1	0.627 nM	8.22e-05 s⁻¹	131000 M⁻¹ s⁻¹	0.194 nM	0.00055 s⁻¹	2.83e+06 M⁻¹ s⁻¹	0.27 nM		
B2	0.577 nM	7.56e-05 s⁻¹	131000 M⁻¹ s⁻¹	0.213 nM	0.000485 s⁻¹	2.29e+06 M⁻¹ s⁻¹	0.32 nM		
B3	0.419 nM	7.42e-05 s⁻¹	177000 M⁻¹ s⁻¹	0.207 nM	0.000488 s⁻¹	2.35e+06 M⁻¹ s⁻¹	0.32 nM		
B4								no binding (tested: 0.5-1000 nM)	no binding (tested: 0.5-1000 nM)
B5								no binding (tested: 0.5-1000 nM)	no binding (tested: 0.5-1000 nM)
